The target of this experiment is rat brain farnesyl:protein transferase (rat) (UniProt Q04631). Description: cell-based or functional assay.

As for “CVIM with glutamic acid at the A2 position (peptide)”, the fold decline in affinity for the enzyme was more than 50 fold. In turn, “CVIM with glutamic acid at the X position (peptide)” registered a concentration required for inhibition of more than 40 µM. In turn, “CVIM with glycine at the A2 position (peptide)” had a concentration giving 50% inhibition of 8 µM.

The substance “CVIM with glycine at the X position (peptide)” displayed a concentration required for inhibition of more than 40 µM. For the substance “CVIM with lysine at the A2 position (peptide)”, the fold decline in affinity for the enzyme was more than 50 fold and the fold decrease in affinity for the enzyme against CVIM, as estimated by the concentration required for 50% inhibition was more than 30 fold. On to “CVIM with lysine at the X position (peptide)”, for which the concentration required for inhibition is more than 40 µM and the fold decrease in affinity for the enzyme against CVIM, as estimated by the concentration required for 50% inhibition was more than 30 fold.

The values are drawn from patent US6790633.
